Measured values as given in US20040265965.
Values joined by “and” are separate entries in the source; they are usually repeats but may differ in a detail not shown here. Equal entries are not always repeated.

These proteins were tested against MBP-C125Swe (maltose binding protein fused to the C-terminal 125 amino acids of the Swedish variant of APP), P05067.
Sequence of MBP-C125Swe (maltose binding protein fused to the C-terminal 125 amino acids of the Swedish variant of APP), P05067 (P05067 whole entry, looked up, change not shown, the tested form may be a part): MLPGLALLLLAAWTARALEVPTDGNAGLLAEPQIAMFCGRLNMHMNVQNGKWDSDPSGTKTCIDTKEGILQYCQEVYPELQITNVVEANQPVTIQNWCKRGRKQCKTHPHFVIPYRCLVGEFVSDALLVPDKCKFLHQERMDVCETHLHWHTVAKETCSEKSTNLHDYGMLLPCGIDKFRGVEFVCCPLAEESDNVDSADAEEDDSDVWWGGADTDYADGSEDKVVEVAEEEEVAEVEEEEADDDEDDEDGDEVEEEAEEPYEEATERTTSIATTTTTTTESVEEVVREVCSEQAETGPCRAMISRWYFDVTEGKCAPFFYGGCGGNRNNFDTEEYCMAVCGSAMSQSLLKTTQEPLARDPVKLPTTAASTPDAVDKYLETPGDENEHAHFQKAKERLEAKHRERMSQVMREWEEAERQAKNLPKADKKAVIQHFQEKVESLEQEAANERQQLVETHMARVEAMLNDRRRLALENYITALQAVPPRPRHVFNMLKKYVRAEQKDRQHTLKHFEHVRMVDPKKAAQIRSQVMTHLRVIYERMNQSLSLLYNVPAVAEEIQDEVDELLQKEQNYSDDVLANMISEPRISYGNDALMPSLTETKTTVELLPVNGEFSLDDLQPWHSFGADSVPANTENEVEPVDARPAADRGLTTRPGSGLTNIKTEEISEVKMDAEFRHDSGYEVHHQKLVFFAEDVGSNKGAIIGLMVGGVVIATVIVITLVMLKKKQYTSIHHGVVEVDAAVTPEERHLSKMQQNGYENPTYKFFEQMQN

Protein	Activity (pM/h/ng enz)	Cleavage Product (pM)	Substrate Conversion (%)	specific activity	Enzyme activity
Δ2,3-452Flag soluble BACE (S174I, N223A) (protein) TQHGIRLPLRSGLGGAPLGLRLPRETDEEPEEPGRRGSFVEMVDNLRGKSGQGYYVEMTVGSPPQTLNILVDTGSSNFAVGAAPHPFLHRYYQRQLSSTYRDLRKGVYVPYTQGKWEGELGTDLVSIPHGPNVTVRANIAAITESDKFFINGINWEGILGLAYAEIARPDDSLEPFFDSLVKQTHVPNLFSLQLCGAGFPLAQSEVLASVGGSMIIGGIDHSLYTGSLWYTPIRREWYYEVIIVRVEINGQDLKMDCKEYNYDKSIVDSGTTNLRLPKKVFEAAVKSIKAASSTEKFPDGFWLGEQLVCWQAGTTPWNIFPVISLYLMGEVTNQSFRITILPQQYLRPVEDVATSQDDCYKFAISQSSTGTVMGAVIMEGFYVVFDRARKRIGFAVSACHVHDEFRTAAVEGPFVTLDMEDCGYNIPQTD	15800 pM/h/ng enz and 15700 pM/h/ng enz	109 pM and 108 pM	5.19% and 5.16%	all three proteins (452 Flag, Δ3-452Flag and Δ2,3-452Flag) had similar specific activities	–
Δ3-452Flag soluble BACE (N223A) (protein) TQHGIRLPLRSGLGGAPLGLRLPRETDEEPEEPGRRGSFVEMVDNLRGKSGQGYYVEMTVGSPPQTLNILVDTGSSNFAVGAAPHPFLHRYYQRQLSSTYRDLRKGVYVPYTQGKWEGELGTDLVSIPHGPNVTVRANIAAITESDKFFINGSNWEGILGLAYAEIARPDDSLEPFFDSLVKQTHVPNLFSLQLCGAGFPLAQSEVLASVGGSMIIGGIDHSLYTGSLWYTPIRREWYYEVIIVRVEINGQDLKMDCKEYNYDKSIVDSGTTNLRLPKKVFEAAVKSIKAASSTEKFPDGFWLGEQLVCWQAGTTPWNIFPVISLYLMGEVTNQSFRITILPQQYLRPVEDVATSQDDCYKFAISQSSTGTVMGAVIMEGFYVVFDRARKRIGFAVSACHVHDEFRTAAVEGPFVTLDMEDCGYNIPQTD	19100 pM/h/ng enz and 20200 pM/h/ng enz	126 pM and 119 pM	5.68% and 6.01%	all three proteins (452 Flag, Δ3-452Flag and Δ2,3-452Flag) had similar specific activities	–
452Flag soluble BACE (membrane truncated BACE with C-terminal Flag epitope tag, fully glycosylated) (protein) TQHGIRLPLRSGLGGAPLGLRLPRETDEEPEEPGRRGSFVEMVDNLRGKSGQGYYVEMTVGSPPQTLNILVDTGSSNFAVGAAPHPFLHRYYQRQLSSTYRDLRKGVYVPYTQGKWEGELGTDLVSIPHGPNVTVRANIAAITESDKFFINGSNWEGILGLAYAEIARPDDSLEPFFDSLVKQTHVPNLFSLQLCGAGFPLNQSEVLASVGGSMIIGGIDHSLYTGSLWYTPIRREWYYEVIIVRVEINGQDLKMDCKEYNYDKSIVDSGTTNLRLPKKVFEAAVKSIKAASSTEKFPDGFWLGEQLVCWQAGTTPWNIFPVISLYLMGEVTNQSFRITILPQQYLRPVEDVATSQDDCYKFAISQSSTGTVMGAVIMEGFYVVFDRARKRIGFAVSACHVHDEFRTAAVEGPFVTLDMEDCGYNIPQTD	14300 pM/h/ng enz and 15200 pM/h/ng enz	85 pM and 90 pM	4.05% and 4.30%	all three proteins (452 Flag, Δ3-452Flag and Δ2,3-452Flag) had similar specific activities	–
452H,NINL soluble BACE (R42L43P44R45 changed to NINL, histidine tag), baculovirus/Sf9 (protein) NINLETDEEPEEPGRRGSFVEMVDNLRGKSGQGYYVEMTVGSPPQTLNILVDTGSSNFAVGAAPHPFLHRYYQRQLSSTYRDLRKGVYVPYTQGKWEGELGTDLVSIPHGPNVTVRANIAAITESDKFFINGSNWEGILGLAYAEIARPDDSLEPFFDSLVKQTHVPNLFSLQLCGAGFPLNQSEVLASVGGSMIIGGIDHSLYTGSLWYTPIRREWYYEVIIVRVEINGQDLKMDCKEYNYDKSIVDSGTTNLRLPKKVFEAAVKSIKAASSTEKFPDGFWLGEQLVCWQAGTTPWNIFPVISLYLMGEVTNQSFRITILPQQYLRPVEDVATSQDDCYKFAISQSSTGTVMGAVIMEGFYVVFDRARKRIGFAVSACHVHDEFRTAAVEGPFVTLDMEDCGYNIPQTDE	–	–	–	–	good activity was obtained for all samples tested
Δ2,3-452H,NINL soluble BACE (S174I, N223A, R42L43P44R45 changed to NINL, histidine tag), baculovirus/Sf9 (protein) NINLETDEEPEEPGRRGSFVEMVDNLRGKSGQGYYVEMTVGSPPQTLNILVDTGSSNFAVGAAPHPFLHRYYQRQLSSTYRDLRKGVYVPYTQGKWEGELGTDLVSIPHGPNVTVRANIAAITESDKFFINGINWEGILGLAYAEIARPDDSLEPFFDSLVKQTHVPNLFSLQLCGAGFPLAQSEVLASVGGSMIIGGIDHSLYTGSLWYTPIRREWYYEVIIVRVEINGQDLKMDCKEYNYDKSIVDSGTTNLRLPKKVFEAAVKSIKAASSTEKFPDGFWLGEQLVCWQAGTTPWNIFPVISLYLMGEVTNQSFRITILPQQYLRPVEDVATSQDDCYKFAISQSSTGTVMGAVIMEGFYVVFDRARKRIGFAVSACHVHDEFRTAAVEGPFVTLDMEDCGYNIPQTDE	–	–	–	–	good activity was obtained for all samples tested
Δ2,3-452H soluble BACE (S174I, N223A, histidine tag), baculovirus/Sf9 (protein) TQHGIRLPLRSGLGGAPLGLRLPRETDEEPEEPGRRGSFVEMVDNLRGKSGQGYYVEMTVGSPPQTLNILVDTGSSNFAVGAAPHPFLHRYYQRQLSSTYRDLRKGVYVPYTQGKWEGELGTDLVSIPHGPNVTVRANIAAITESDKFFINGINWEGILGLAYAEIARPDDSLEPFFDSLVKQTHVPNLFSLQLCGAGFPLAQSEVLASVGGSMIIGGIDHSLYTGSLWYTPIRREWYYEVIIVRVEINGQDLKMDCKEYNYDKSIVDSGTTNLRLPKKVFEAAVKSIKAASSTEKFPDGFWLGEQLVCWQAGTTPWNIFPVISLYLMGEVTNQSFRITILPQQYLRPVEDVATSQDDCYKFAISQSSTGTVMGAVIMEGFYVVFDRARKRIGFAVSACHVHDEFRTAAVEGPFVTLDMEDCGYNIPQTDE	–	–	–	–	good activity was obtained for all samples tested
